Publication PMC10397247

Experiments:
Experiment in all cases: two-hybrid library CCmax;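 further: natural log of median RNA to DNA barcode read ratio; higher means stronger binding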
4H342-AA = target: T1, 4H342-AA; conditions: mean of both orientations
T1 chain: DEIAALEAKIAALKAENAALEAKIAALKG

4H3655-AA = target: T2, 4H3655-AA; conditions: mean of both orientations
T2 chain: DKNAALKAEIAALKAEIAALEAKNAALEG

4H2883-AA = target: T3, 4H2883-AA; conditions: mean of both orientations
T3 chain: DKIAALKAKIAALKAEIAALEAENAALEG

4H881-AA = target: T4, 4H881-AA; conditions: mean of both orientations
T4 chain: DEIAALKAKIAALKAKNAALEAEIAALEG

4H2393-AA = target: T5, 4H2393-AA; conditions: mean of both orientations
T5 chain: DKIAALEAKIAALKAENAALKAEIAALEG

4H3606-AA = target: T6, 4H3606-AA; conditions: mean of both orientations
T6 chain: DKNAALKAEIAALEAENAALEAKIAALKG

4H1636-AA = target: T7, 4H1636-AA
T7 chain: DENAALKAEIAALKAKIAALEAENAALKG

4H605-AA = target: T8, 4H605-AA; conditions: mean of both orientations
T8 chain: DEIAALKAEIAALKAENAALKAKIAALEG

4H2505-AA = target: T9, 4H2505-AA; conditions: mean of both orientations
T9 chain: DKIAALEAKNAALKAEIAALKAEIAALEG

4H780-AA = target: T10, 4H780-AA; conditions: mean of both orientations
T10 chain: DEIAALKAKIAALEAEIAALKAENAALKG

4H48-AA = target: T11, 4H48-AA; conditions: mean of both orientations
T11 chain: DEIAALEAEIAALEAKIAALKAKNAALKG

4H794-AA = target: T12, 4H794-AA; conditions: mean of both orientations
T12 chain: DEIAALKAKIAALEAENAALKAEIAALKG

4H2729-AA = target: T13, 4H2729-AA; conditions: mean of both orientations
T13 chain: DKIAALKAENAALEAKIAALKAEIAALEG

4H429-AA = target: T14, 4H429-AA; conditions: mean of both orientations
T14 chain: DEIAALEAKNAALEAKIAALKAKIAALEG

4H3921-AA = target: T15, 4H3921-AA; conditions: mean of both orientations
T15 chain: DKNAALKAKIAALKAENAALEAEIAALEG

4H2944-AA = target: T16, 4H2944-AA; conditions: mean of both orientations
T16 chain: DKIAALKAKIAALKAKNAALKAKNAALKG

4H2151-AA = target: T17, 4H2151-AA; conditions: mean of both orientations
T17 chain: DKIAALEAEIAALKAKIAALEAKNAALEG

4H993-AA = target: T18, 4H993-AA; conditions: mean of both orientations
T18 chain: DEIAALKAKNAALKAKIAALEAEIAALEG

4H2078-AA = target: T19, 4H2078-AA; conditions: mean of both orientations
T19 chain: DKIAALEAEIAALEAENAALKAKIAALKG

4H2277-AA = target: T20, 4H2277-AA; conditions: mean of both orientations
T20 chain: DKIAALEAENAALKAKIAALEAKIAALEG

4H317-AA = target: T21, 4H317-AA; conditions: mean of both orientations
T21 chain: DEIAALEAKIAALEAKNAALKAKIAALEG

4H2642-AA = target: T22, 4H2642-AA; conditions: mean of both orientations
T22 chain: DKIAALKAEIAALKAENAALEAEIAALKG

4H678-AA = target: T23, 4H678-AA; conditions: mean of both orientations
T23 chain: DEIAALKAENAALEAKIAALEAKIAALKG

4H906-AA = target: T24, 4H906-AA; conditions: mean of both orientations
T24 chain: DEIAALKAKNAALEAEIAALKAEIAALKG

4H3427-AA = target: T25, 4H3427-AA; conditions: mean of both orientations
T25 chain: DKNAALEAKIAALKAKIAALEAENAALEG

4H2575-AA = target: T26, 4H2575-AA; conditions: mean of both orientations
T26 chain: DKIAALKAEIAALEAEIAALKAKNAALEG

4H1867-AA = target: T27, 4H1867-AA; conditions: mean of both orientations
T27 chain: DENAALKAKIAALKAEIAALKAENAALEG

4H2466-AA = target: T28, 4H2466-AA; conditions: mean of both orientations
T28 chain: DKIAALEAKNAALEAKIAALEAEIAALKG

4H566-AA = target: T29, 4H566-AA; conditions: mean of both orientations
T29 chain: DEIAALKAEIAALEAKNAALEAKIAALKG

4H234-AA = target: T30, 4H234-AA; conditions: mean of both orientations
T30 chain: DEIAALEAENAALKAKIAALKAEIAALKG

4H2949-AA = target: T31, 4H2949-AA; conditions: mean of both orientations
T31 chain: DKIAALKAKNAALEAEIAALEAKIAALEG

4H2754-AA = target: T32, 4H2754-AA; conditions: mean of both orientations
T32 chain: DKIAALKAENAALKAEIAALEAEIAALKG

4H454-AA = target: T33, 4H454-AA; conditions: mean of both orientations
T33 chain: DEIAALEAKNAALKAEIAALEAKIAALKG

4H2837-AA = target: T34, 4H2837-AA; conditions: mean of both orientations
T34 chain: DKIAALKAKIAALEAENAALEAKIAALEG

4H3844-AA = target: T35, 4H3844-AA; conditions: mean of both orientations
T35 chain: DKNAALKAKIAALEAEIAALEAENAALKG

4H717-AA = target: T36, 4H717-AA; conditions: mean of both orientations
T36 chain: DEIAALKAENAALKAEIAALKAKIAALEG

4H2165-AA = target: T37, 4H2165-AA; conditions: mean of both orientations
T37 chain: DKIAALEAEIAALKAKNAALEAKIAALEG

4H2190-AA = target: T38, 4H2190-AA; conditions: mean of both orientations
T38 chain: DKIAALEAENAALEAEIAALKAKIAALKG

4H2617-AA = target: T39, 4H2617-AA; conditions: mean of both orientations
T39 chain: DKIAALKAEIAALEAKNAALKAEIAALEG

4H3343-AA = target: T40, 4H3343-AA; conditions: mean of both orientations
T40 chain: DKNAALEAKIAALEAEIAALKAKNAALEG

4H335-AA = target: T41, 4H335-AA; conditions: mean of both orientations
T41 chain: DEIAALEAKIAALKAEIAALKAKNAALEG

4H2354-AA = target: T42, 4H2354-AA; conditions: mean of both orientations
T42 chain: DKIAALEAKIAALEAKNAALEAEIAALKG

4H3112-AA = target: T43, 4H3112-AA; conditions: mean of both orientations
T43 chain: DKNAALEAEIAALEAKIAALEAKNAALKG

4H3627-AA = target: T44, 4H3627-AA; conditions: mean of both orientations
T44 chain: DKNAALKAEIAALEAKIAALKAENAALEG

With DENAALKAEIAALKAKIAALEAENAALKG [4H1636-AA] the interaction score (4H342-AA) was -1.29, the interaction score (4H3655-AA) was -0.763 and the interaction score (4H2883-AA) was -1.16. For the same binder, the interaction score (4H881-AA) was -1.46, the interaction score (4H2393-AA) was -0.706 and the interaction score (4H3606-AA) was -1.17. The interaction score (4H1636-AA) was 2.39, the interaction score (4H605-AA) was -1.56 and the interaction score (4H2505-AA) was -1.47. The interaction score (4H780-AA) was -1.3, the interaction score (4H48-AA) was -1.07 and the interaction score (4H794-AA) was -1.68. The interaction score (4H2729-AA) was -1.23, the interaction score (4H429-AA) was -1.27 and the interaction score (4H3921-AA) was -1.8. The interaction score (4H2944-AA) was -1.81, the interaction score (4H2151-AA) was -0.999 and the interaction score (4H993-AA) was -1.52. It also gave an interaction score (4H2078-AA) of -1.57, an interaction score (4H2277-AA) of -1.87 and an interaction score (4H317-AA) of -1.74. The interaction score (4H2642-AA) was -1.33, the interaction score (4H678-AA) was -1.1 and the interaction score (4H906-AA) was -1.91. It also gave an interaction score (4H3427-AA) of -0.846, an interaction score (4H2575-AA) of -0.963 and an interaction score (4H1867-AA) of -0.897. The interaction score (4H2466-AA) was -2.07, the interaction score (4H566-AA) was -1.41 and the interaction score (4H234-AA) was -1.95. For the same binder, the interaction score (4H2949-AA) was -1.16, the interaction score (4H2754-AA) was -1.42 and the interaction score (4H454-AA) was -1.23. For the same binder, the interaction score (4H2837-AA) was -1.5, the interaction score (4H3844-AA) was -0.519 and the interaction score (4H717-AA) was -0.951. For the same binder, the interaction score (4H2165-AA) was -1.82, the interaction score (4H2190-AA) was -0.932 and the interaction score (4H2617-AA) was -1.46. It also gave an interaction score (4H3343-AA) of -1.42, an interaction score (4H335-AA) of -1.41 and an interaction score (4H2354-AA) of -1.49. For the same binder, the interaction score (4H3112-AA) was -0.658 and the interaction score (4H3627-AA) was -0.519.
